This is an account of results in patent US20090022714A1 (published 2009).

The Kd is the free concentration of one partner at which half of the binding sites on the other are occupied at equilibrium, for simple one-to-one binding. A low value points to higher affinity. A word on the koff: it is the first-order rate constant of dissociation. Read a low koff as a long-lived complex. As a reminder, the kon is a measure of how fast the partners come together. High values mean fast association, low ones slow association. What is called IC50 is the concentration needed to halve the response being measured. Higher therefore signals weaker potency in that assay.

Experiment [1] deals with T1, soluble fusion protein KDR (VEGFR-2)-AP (human, UniProt P35968 20-764).
T1 construct: extracellular domain; expressed in NIH 3T3 cells; also called KDR-AP; KDR (VEGFR-2)-alkaline phosphatase fusion protein; not shown: human placental alkaline phosphatase (AP), vector AP-Tag
T1 sequence (P35968 20-764): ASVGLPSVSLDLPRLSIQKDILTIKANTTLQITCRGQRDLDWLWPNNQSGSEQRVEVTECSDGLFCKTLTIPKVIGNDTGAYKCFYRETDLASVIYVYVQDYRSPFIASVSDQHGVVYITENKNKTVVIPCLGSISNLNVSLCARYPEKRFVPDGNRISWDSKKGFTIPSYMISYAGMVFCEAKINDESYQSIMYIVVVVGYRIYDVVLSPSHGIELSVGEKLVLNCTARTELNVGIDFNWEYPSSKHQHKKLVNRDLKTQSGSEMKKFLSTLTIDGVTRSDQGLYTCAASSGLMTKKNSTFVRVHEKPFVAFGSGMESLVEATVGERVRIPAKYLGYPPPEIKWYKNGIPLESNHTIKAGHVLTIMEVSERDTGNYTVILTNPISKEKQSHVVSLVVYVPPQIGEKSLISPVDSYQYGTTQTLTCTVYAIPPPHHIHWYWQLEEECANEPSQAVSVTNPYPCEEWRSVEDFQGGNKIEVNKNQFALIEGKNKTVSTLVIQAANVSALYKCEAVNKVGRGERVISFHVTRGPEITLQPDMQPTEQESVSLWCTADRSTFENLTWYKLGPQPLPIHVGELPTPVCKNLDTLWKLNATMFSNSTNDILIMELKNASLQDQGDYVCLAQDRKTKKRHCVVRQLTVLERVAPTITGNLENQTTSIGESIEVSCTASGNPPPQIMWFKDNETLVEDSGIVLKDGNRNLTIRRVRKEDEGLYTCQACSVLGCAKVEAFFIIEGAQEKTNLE
As to the kind of experiment: BIAcore, KDR-AP immobilized. The method, then: The binding kinetics of soluble Fab proteins to KDR (VEGFR-2) were measured by surface plasmon resonance using a BIAcore biosensor (Pharmacia Biosensor). […] Sensorgrams were obtained at each concentration and were evaluated using a program, BIA Evaluation 2.0, to determine the rate constants kon and koff Kd was calculated from the ratio of rate constants koff/kon.
(Surface plasmon resonance follows binding to a sensor surface in real time, without labels.)

Experiment [2] concerns the target human KDR (VEGFR-2), cell surface-expressed (HUVEC) (human, UniProt P35968 20-1356). In words: cell-based or functional assay.
Experiment [3] has as its target T2, soluble fusion protein Flk-1-AP (murine, UniProt P35918 20-762).
T2 construct: expressed in NIH 3T3; not shown: alkaline phosphatase (AP)
In words: ELISA on captured Flk-1-AP. Background: ELISA stands for enzyme-linked immunosorbent assay.

Experiment [4] addresses T1, soluble fusion protein KDR (VEGFR-2)-AP. As to the kind of experiment: competitive ELISA: KDR-AP binding to immobilized VEGF165. The method, then:
In a direct binding assay, various amounts of soluble Fab proteins were added to KDR (VEGFR-2)-coated 96-well Maxi-sorp microtiter plates and incubated at RT for 1 h, after which the plates were washed 3 times with PBST. The plates were then incubated at RT for 1 h with 100 Φl of a rabbit anti-human Fab antibody-HRP conjugate (Jackson ImmunoResearch Laboratory Inc., West Grove, Pa.). The plates were washed and developed following the procedure described above for the phage ELISA. […] The mixtures were then transferred to 96-well microtiter plates precoated with VEGF₁₆₅ (200 ng/well) and incubated at RT for an additional 2 h, after which the plates were washed 5 times and the substrate for AP (p-nitrophenyl phosphate, Sigma) was added. Absorbance at 405 nm was measured to quantify the bound KDR (VEGFR-2)-AP molecules (8).

Experiment [5] has as its target human KDR (VEGFR-2), construct not stated (human, UniProt P35968 20-764, limits assumed). As to the kind of experiment: selection from second Fab phage library.
For experiment [6], the target named is T2, soluble fusion protein Flk-1-AP. As to the kind of experiment: blocking of VEGF binding to Flk-1.

T2 sequence (P35918 20-762): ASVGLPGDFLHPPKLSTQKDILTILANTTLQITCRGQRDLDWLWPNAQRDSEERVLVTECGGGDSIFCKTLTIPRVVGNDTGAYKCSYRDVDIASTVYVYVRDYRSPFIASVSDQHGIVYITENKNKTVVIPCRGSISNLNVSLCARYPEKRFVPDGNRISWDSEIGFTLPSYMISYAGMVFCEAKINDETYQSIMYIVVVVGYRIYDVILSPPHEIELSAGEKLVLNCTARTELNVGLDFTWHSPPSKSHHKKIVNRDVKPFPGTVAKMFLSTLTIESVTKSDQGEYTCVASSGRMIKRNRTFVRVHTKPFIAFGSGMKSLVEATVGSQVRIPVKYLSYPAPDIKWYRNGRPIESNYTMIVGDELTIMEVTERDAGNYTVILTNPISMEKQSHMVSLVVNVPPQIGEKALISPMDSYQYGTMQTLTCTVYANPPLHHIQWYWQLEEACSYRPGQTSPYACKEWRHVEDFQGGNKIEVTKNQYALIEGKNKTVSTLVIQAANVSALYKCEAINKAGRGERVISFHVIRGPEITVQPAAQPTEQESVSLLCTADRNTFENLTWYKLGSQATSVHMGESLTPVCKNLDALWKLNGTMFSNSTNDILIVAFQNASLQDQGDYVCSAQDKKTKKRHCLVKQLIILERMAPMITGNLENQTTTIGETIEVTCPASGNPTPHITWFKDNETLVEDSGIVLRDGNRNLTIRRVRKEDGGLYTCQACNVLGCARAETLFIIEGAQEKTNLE
human KDR (VEGFR-2), construct not stated, sequence (P35968 20-764 limits assumed): as the sequence (P35968 20-764) above
human KDR (VEGFR-2), cell surface-expressed (HUVEC), sequence (P35968 20-1356): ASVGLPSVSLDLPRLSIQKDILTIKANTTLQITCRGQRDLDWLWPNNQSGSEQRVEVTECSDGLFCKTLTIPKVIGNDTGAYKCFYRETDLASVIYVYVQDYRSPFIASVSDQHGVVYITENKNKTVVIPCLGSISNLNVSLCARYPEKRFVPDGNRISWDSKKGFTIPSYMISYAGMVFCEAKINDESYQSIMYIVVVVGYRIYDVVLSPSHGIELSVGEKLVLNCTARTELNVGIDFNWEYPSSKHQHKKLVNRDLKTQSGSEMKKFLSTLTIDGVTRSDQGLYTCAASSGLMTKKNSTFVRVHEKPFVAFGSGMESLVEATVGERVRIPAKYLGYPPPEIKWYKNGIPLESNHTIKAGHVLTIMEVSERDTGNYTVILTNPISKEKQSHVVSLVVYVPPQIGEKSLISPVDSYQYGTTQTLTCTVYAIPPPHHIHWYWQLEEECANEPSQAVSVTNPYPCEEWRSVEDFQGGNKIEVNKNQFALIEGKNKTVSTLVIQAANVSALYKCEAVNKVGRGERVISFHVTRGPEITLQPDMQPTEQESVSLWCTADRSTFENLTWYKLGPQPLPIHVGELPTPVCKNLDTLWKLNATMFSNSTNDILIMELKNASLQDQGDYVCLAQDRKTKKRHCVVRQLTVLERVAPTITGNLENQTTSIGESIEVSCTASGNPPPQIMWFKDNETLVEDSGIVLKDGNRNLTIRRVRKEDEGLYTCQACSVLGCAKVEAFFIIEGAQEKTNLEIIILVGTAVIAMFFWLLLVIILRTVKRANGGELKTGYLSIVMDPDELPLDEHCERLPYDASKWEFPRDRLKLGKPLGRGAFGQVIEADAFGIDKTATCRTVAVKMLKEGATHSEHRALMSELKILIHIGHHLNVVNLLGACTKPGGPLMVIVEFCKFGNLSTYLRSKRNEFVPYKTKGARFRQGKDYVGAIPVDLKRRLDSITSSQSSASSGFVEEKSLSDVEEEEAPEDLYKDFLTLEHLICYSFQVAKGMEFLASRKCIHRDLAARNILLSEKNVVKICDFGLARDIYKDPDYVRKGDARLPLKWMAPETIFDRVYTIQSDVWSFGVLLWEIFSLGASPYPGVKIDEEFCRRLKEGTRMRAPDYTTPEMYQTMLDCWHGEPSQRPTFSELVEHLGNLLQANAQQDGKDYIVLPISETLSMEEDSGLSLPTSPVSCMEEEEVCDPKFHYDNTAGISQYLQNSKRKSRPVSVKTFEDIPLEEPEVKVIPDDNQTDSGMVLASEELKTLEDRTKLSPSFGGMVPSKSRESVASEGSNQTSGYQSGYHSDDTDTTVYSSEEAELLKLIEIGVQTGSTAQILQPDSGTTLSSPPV

B1: human anti-KDR (VEGFR-2) Fab D2C6 (Fab, V domains shown)
VH: EVQLVQSGGGLVKPGGSLRLSCAASGFTFSSYSMNWVRQAPGKGLEWVSSISSSSSYIYYADSVKGRFTISRDNAKNSLYLQMNSLRAEDTAVYYCARVTDAFDIWGQGTMVTVSS
VL: EIVMTQSPATLSLSPGERATLSCRASQSVSSYLAWYQQKPGQAPRLLIYDSSNRATGIPARFSGSGSGTDFTLTISSLEPEDFATYYCLQHNTFPPTFGQGTKVEIK
notes: soluble Fab from E. coli HB2151; also called Hu-2C6 Fab
As for B1, in experiment [1], the Kd was 1.97 nM, the dissociation rate constant (koff) is 0.000538 s⁻¹ and the kon was 273000 M⁻¹ s⁻¹. Also, the “EC50, inhibition of VEGF-stimulated [3H]-TdR incorporation in HUVEC” value (from here on “EC50, inhibition of VEGF-stimulated”) in experiment [2] is ~0.5 nM. In experiment [3], the binding result was “no binding”. Besides, the IC50 in experiment [4] was ~2 nM.

B2: human Fab SC7 (Fab, V domains shown)
VH: EVQLVQSGGGLVKPGGSLRLSCAASGFTFSSYSMNWVRQAPGKGLEWVSSISSSSSYIYYADSVKGRFTISRDNAKNSLYLQMNSLRAEDTAVYYCARVTDAFDIWGQGTMVTVSS
VL: DIQLTQSPSSVSASVGDSVTITCRASQDISSWLAWYQQKPGEAPKLLIYAASLLQSGVPSRFSGSGSGTDFALTINSLQPEDFATYFCQQADSFPPTFGQGTRLEIK
notes: from the second library
Take B2: the binding result in experiment [5] is listed as “binds”.

B3: human Fab SD2 (Fab, V domains shown)
VH: EVQLVQSGGGLVKPGGSLRLSCAASGFTFSSYSMNWVRQAPGKGLEWVSSISSSSSYIYYADSVKGRFTISRDNAKNSLYLQMNSLRAEDTAVYYCARVTDAFDIWGQGTMVTVSS
VL: DIELTQSPSSVSASVGDRVTLTCRASQSIKRWLAWYQQKPGKAPRLLIYAASTLQSGVPSRFSGGGSGTDFTLTINSLQPEDFAIYYCQQANSFPPTFGPGTKVDIK
notes: from the second library
Take B3: in experiment [5], the binding result is reported as “binds”.

B4: human Fab SF2 (Fab, V domains shown)
VH: EVQLVQSGGGLVKPGGSLRLSCAASGFTFSSYSMNWVRQAPGKGLEWVSSISSSSSYIYYADSVKGRFTISRDNAKNSLYLQMNSLRAEDTAVYYCARVTDAFDIWGQGTMVTVSS
VL: QSVVTQPPSVSGAPGQRVTISCTGSSSNIGTGYDVHWYQQVPGSAPKLLIYAYTNRPSGVPDRFSGSKSGMSASLVIGGLQAEDEADYYCQSFDDSLNGLVFGPGTSVTVL
notes: from the second library
As for B4, in experiment [5], the binding result is given as “binds”.

B5: human anti-KDR (VEGFR-2) Fab D1H4 (Fab, V domains shown)
VH: EVQLVQSGGGLVKPGGSLRLSCAASGFTFSSYSMNWVRQAPGKGLEWVSSISSSSSYIYYADSVKGRFTISRDNAKNSLYLQMNSLRAEDTAVYYCARVTDAFDIWGQGTMVTVSS
VL: QSALTQPASLSGSPGQSITISCAGTTTDLTYYDLVSWYQQHPGQAPKLVIYDGNKRPSGVSNRFSGSKSGNTASLTISGLQAEDEADYYCNSYVSSRFYVFGTGTKVTVL
notes: soluble Fab from E. coli HB2151; also called Hu-1H4 Fab
In experiment [1], B5 registered a dissociation constant (Kd) of 2.76 nM, an off-rate constant (koff) of 0.000153 s⁻¹ and an association rate constant (kon) of 55500 M⁻¹ s⁻¹. Also, the “EC50, inhibition of VEGF-stimulated” value in experiment [2] is ~0.5 nM. Also, the binding result in experiment [3] is given as “no binding”. For the same molecule, the 50% inhibitory concentration (IC50) in experiment [4] was ~2 nM.

B6: human Fab SD5 (Fab, V domains shown)
VH: EVQLVQSGGGLVKPGGSLRLSCAASGFTFSSYSMNWVRQAPGKGLEWVSSISSSSSYIYYADSVKGRFTISRDNAKNSLYLQMNSLRAEDTAVYYCARVTDAFDIWGQGTMVTVSS
VL: QSVVTQPPSVSGAPGQRVTISCSGSRSNIGAHYEVQWYQQFPGAAPKLLIYGDTNRPSGVPDRFSASHSGTSASLAITGLQAEDEADYYCQSYDTSLRGPVFGGGTKLTVL
notes: from the second library
B6: the binding result in experiment [5] is “binds”.

B7: human anti-KDR (VEGFR-2) Fab D2H2 (Fab, V domains shown)
VH: EVQLVQSGGGLVKPGGSLRLSCAASGFTFSSYSMNWVRQAPGKGLEWVSSISSSSSYIYYADSVKGRFTISRDNAKDSLYLQMNSLRAEDTAVYYCARVTDAFDIWGQGTMVTVSS
VL: DIQLTQSPSSVSASVGDRVTITCRASQGISSRLAWYQQKPGKAPKLLIYAASSLQTGVPSRFSGSGSGTDFTLTISSLQPEDFATYYCQQANRFPPTFGPGTKVDIK
notes: soluble Fab from E. coli HB2151; also called Hu-2H2 Fab
B7: in experiment [1], the Kd came to 3.93 nM, the koff turned out to be 0.000487 s⁻¹ and the on-rate constant (kon) came out at 124000 M⁻¹ s⁻¹. The “EC50, inhibition of VEGF-stimulated” value in experiment [2] is ~0.8 nM. In experiment [3], the binding result is given as “no binding”. Further, the concentration for half-maximal inhibition (IC50) in experiment [4] is ~2 nM.

B8: human Fab SA1 (Fab, V domains shown)
VH: EVQLVQSGGGLVKPGGSLRLSCAASGFTFSSYSMNWVRQAPGKGLEWVSSISSSSSYIYYADSVKGRFTISRDNAKNSLYLQMNSLRAEDTAVYYCARVTDAFDIWGQGTMVTVSS
VL: QSVVTQPPSVSGAPGQRVTISCTGSHSNFGAGTDVHWYQHLPGTAPRLLIHGDSNRPSGVPDRFSGSRSGTSASLAITGLRVEDEADYYCQSYDYGLRGWVFGGGTKLTVL
notes: from the second library (D2C6 heavy chain with shuffled light chains)
With B8, the binding result in experiment [5] is given as “binds”.

B9: human Fab SB5 (Fab, V domains shown)
VH: EVQLVQSGGGLVKPGGSLRLSCAASGFTFSSYSMNWVRQAPGKGLEWVSSISSSSSYIYYADSVKGRFTISRDNAKNSLYLQMNSLRAEDTAVYYCARVTDAFDIWGQGTMVTVSS
VL: QAVLTQPSSVSGAPGQRVTISCTGQSSNIGADYDVHWYQQFPGTAPKLLIYGHNNRPSGVPDRFSGSKSGTSVSLVISGLQAEDEADYYCQSYDSSLSGLVFGGGTKVTVL
notes: from the second library
B9: the binding result in experiment [5] is “binds”.

B10: human Fab SA3 (Fab, V domains shown)
VH: EVQLVQSGGGLVKPGGSLRLSCAASGFTFSSYSMNWVRQAPGKGLEWVSSISSSSSYIYYADSVKGRFTISRDNAKNSLYLQMNSLRAEDTAVYYCARVTDAFDIWGQGTMVTVSS
VL: DVVMTQSPSSLSASVGDRVTITCRASQNINNYLNWYQQKPGKAPKLLIYAASTLQSGVPSRFSGSGSGTDFTLTITSLQPEDSATYYCQQYSRYPPTFGGGTKVEIT
notes: from the second library
With B10, the binding result in experiment [5] is reported as “binds”.

B11: human Fab SB10 (Fab, V domains shown)
VH: EVQLVQSGGGLVKPGGSLRLSCAASGFTFSSYSMNWVRQAPGKGLEWVSSISSSSSYIYYADSVKGRFTISRDNAKNSLYLQMNSLRAEDTAVYYCARVTDAFDIWGQGTMVTVSS
VL: QSALTQPASVSGSRGQSITLSCTGSSTDVGNYNYISWYQQHPGQAPKLLIYDVTSRPSGVSDRFSGSKSGLTASLTISGLQPEDEADYYCNSYSATDTLVFGGGTKLTVL
notes: from the second library
In the case of B11, the binding result in experiment [5] is listed as “binds”.

B12: human Fab 1121 (Fab, V domains shown)
VH: EVQLVQSGGGLVKPGGSLRLSCAASGFTFSSYSMNWVRQAPGKGLEWVSSISSSSSYIYYADSVKGRFTISRDNAKNSLYLQMNSLRAEDTAVYYCARVTDAFDIWGQGTMVTVSS
VL: DIQMTQSPSSVSASIGDRVTITCRASQGIDNWLGWYQQKPGKAPKLLIYDASNLDTGVPSRFSGSGSGTYFTLTISSLQAEDFAVYFCQQAKAFPPTFGGGTKVDIK
notes: from the second library
B12: in experiment [5], the binding result is given as “binds”.

B13: human Fab SF7 (Fab, V domains shown)
VH: EVQLVQSGGGLVKPGGSLRLSCAASGFTFSSYSMNWVRQAPGKGLEWVSSISSSSSYIYYADSVKGRFTISRDNAKNSLYLQMNSLRAEDTAVYYCARVTDAFDIWGQGTMVTVSS
VL: QSVLTQPPSVSGAPGQRVTISCTGSHSNFGAGTDVHWYQHLPGTAPRLLIHGDTHRPSGVADRFSGSRSGASASLAITGLRVEDEADYYCQSYDYGLRGWVFGGGTKLTVL
notes: from the second library
Consider B13, for which, in experiment [5], the binding result was “binds”.

B14: human anti-KDR (VEGFR-2) Fab D1F7 (Fab, V domains shown)
VH: EVQLVQSGAEVKKPGASVKVSCKASGGTFSSYAISWVRQAPGQGLEWMGGIIPIFGTANYAQKFQGRVTFTADKSTSTAYMELRSLRSDDTAVYYCARGYDYYDSSGVASPFDYWGQGTLVTVSS
VL: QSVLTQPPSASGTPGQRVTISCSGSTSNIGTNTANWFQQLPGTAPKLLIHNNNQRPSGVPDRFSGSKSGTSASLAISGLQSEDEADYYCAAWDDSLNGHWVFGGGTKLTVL
notes: soluble Fab from E. coli HB2151; also called DIF7; Hu-1F7 Fab
In experiment [1], B14 returned a Kd of 45.2 nM, a koff of 0.00187 s⁻¹ and a kon of 41400 M⁻¹ s⁻¹. Besides, the “EC50, inhibition of VEGF-stimulated” value in experiment [2] is ~15 nM. The half-maximal inhibitory concentration (IC50) in experiment [4] is ~20 nM. The half-maximal inhibitory concentration (IC50) in experiment [6] is ~15 nM.
